# The RNAGym collection of RNA variant scans (doi:10.7554/elife.80360)
# B1: Hammerhead Ribozyme (parent)
# chain: ACCGGAUGUGCUUUCCGGUCUGAUGAGUCCGUGAGGACGAAACAG
# Variants of: B1
# Assay: self-cleavage, relative activity (ratio to wild type); higher = more cleavage; co-transcriptional
row,Variant,self-cleavage
1,ACCGGAUGUGCUUUCCGCUCUGAUGAGUCCGUGGGGACGAAACAG [G18C A34G],0.422
2,ACCGGAUGUGCUUUCCGCUCUGAUGAGUCCGUGUGGACGAAACAG [G18C A34U],0.409
3,ACCGGAUGUGCUUUCCGCUCUGAUGAGUCCGUGAGGCCGAAACAG [G18C A37C],0.373
4,ACCGGAUGUGCUUUCCGCUCUGAUGAGUCCGUGAGGGCGAAACAG [G18C A37G],0.398
5,ACCGGAUGUGCUUUCCGCUCUGAUGAGUCCGUGAGGUCGAAACAG [G18C A37U],0.483
6,ACCGGAUGUGCUUUCCGCUCUGAUGAGUCCGUGAGGACGCAACAG [G18C A40C],0.389
7,ACCGGAUGUGCUUUCCGCUCUGAUGAGUCCGUGAGGACGGAACAG [G18C A40G],0.369
8,ACCGGAUGUGCUUUCCGCUCUGAUGAGUCCGUGAGGACGUAACAG [G18C A40U],0.339
9,ACCGGAUGUGCUUUCCGCUCUGAUGAGUCCGUGAGGACGACACAG [G18C A41C],0.303
10,ACCGGAUGUGCUUUCCGCUCUGAUGAGUCCGUGAGGACGAGACAG [G18C A41G],0.313
11,ACCGGAUGUGCUUUCCGCUCUGAUGAGUCCGUGAGGACGAUACAG [G18C A41U],0.36
12,ACCGGAUGUGCUUUCCGCUCUGAUGAGUCCGUGAGGACGAACCAG [G18C A42C],0.328
13,ACCGGAUGUGCUUUCCGCUCUGAUGAGUCCGUGAGGACGAAGCAG [G18C A42G],0.372
14,ACCGGAUGUGCUUUCCGCUCUGAUGAGUCCGUGAGGACGAAUCAG [G18C A42U],0.325
15,ACCGGAUGUGCUUUCCGCUCUGAUGAGUCCGUGAGGACGAAACCG [G18C A44C],0.435
16,ACCGGAUGUGCUUUCCGCUCUGAUGAGUCCGUGAGGACGAAACGG [G18C A44G],0.643
17,ACCGGAUGUGCUUUCCGCUCUGAUGAGUCCGUGAGGACGAAACUG [G18C A44U],0.354
18,ACCGGAUGUGCUUUCCGCUAUGAUGAGUCCGUGAGGACGAAACAG [G18C C20A],0.285
19,ACCGGAUGUGCUUUCCGCUGUGAUGAGUCCGUGAGGACGAAACAG [G18C C20G],0.34

row,Variant,self-cleavage
1,ACCGGAUGUGCUUUCCGCUUUGAUGAGUCCGUGAGGACGAAACAG [G18C C20U],0.339
2,ACCGGAUGUGCUUUCCGCUCUGAUGAGUACGUGAGGACGAAACAG [G18C C29A],0.374
3,ACCGGAUGUGCUUUCCGCUCUGAUGAGUGCGUGAGGACGAAACAG [G18C C29G],0.302
4,ACCGGAUGUGCUUUCCGCUCUGAUGAGUUCGUGAGGACGAAACAG [G18C C29U],0.506
5,ACCGGAUGUGCUUUCCGCUCUGAUGAGUCAGUGAGGACGAAACAG [G18C C30A],0.451
6,ACCGGAUGUGCUUUCCGCUCUGAUGAGUCGGUGAGGACGAAACAG [G18C C30G],0.372
7,ACCGGAUGUGCUUUCCGCUCUGAUGAGUCUGUGAGGACGAAACAG [G18C C30U],0.606
8,ACCGGAUGUGCUUUCCGCUCUGAUGAGUCCGUGAGGAAGAAACAG [G18C C38A],0.327
9,ACCGGAUGUGCUUUCCGCUCUGAUGAGUCCGUGAGGAGGAAACAG [G18C C38G],0.387
10,ACCGGAUGUGCUUUCCGCUCUGAUGAGUCCGUGAGGAUGAAACAG [G18C C38U],0.453
11,ACCGGAUGUGCUUUCCGCUCUGAUGAGUCCGUGAGGACGAAAAAG [G18C C43A],0.327
12,ACCGGAUGUGCUUUCCGCUCUGAUGAGUCCGUGAGGACGAAAGAG [G18C C43G],0.358
13,ACCGGAUGUGCUUUCCGCUCUGAUGAGUCCGUGAGGACGAAAUAG [G18C C43U],0.292
14,ACCGGAUGUGCUUUCCGCUCUAAUGAGUCCGUGAGGACGAAACAG [G18C G22A],0.342
15,ACCGGAUGUGCUUUCCGCUCUCAUGAGUCCGUGAGGACGAAACAG [G18C G22C],0.333
16,ACCGGAUGUGCUUUCCGCUCUUAUGAGUCCGUGAGGACGAAACAG [G18C G22U],0.29
17,ACCGGAUGUGCUUUCCGCUCUGAUAAGUCCGUGAGGACGAAACAG [G18C G25A],0.328
18,ACCGGAUGUGCUUUCCGCUCUGAUCAGUCCGUGAGGACGAAACAG [G18C G25C],0.347
19,ACCGGAUGUGCUUUCCGCUCUGAUUAGUCCGUGAGGACGAAACAG [G18C G25U],0.284

row,Variant,self-cleavage
1,ACCGGAUGUGCUUUCCGCUCUGAUGAAUCCGUGAGGACGAAACAG [G18C G27A],0.416
2,ACCGGAUGUGCUUUCCGCUCUGAUGACUCCGUGAGGACGAAACAG [G18C G27C],0.402
3,ACCGGAUGUGCUUUCCGCUCUGAUGAUUCCGUGAGGACGAAACAG [G18C G27U],0.298
4,ACCGGAUGUGCUUUCCGCUCUGAUGAGUCCAUGAGGACGAAACAG [G18C G31A],0.649
5,ACCGGAUGUGCUUUCCGCUCUGAUGAGUCCCUGAGGACGAAACAG [G18C G31C],0.548
6,ACCGGAUGUGCUUUCCGCUCUGAUGAGUCCUUGAGGACGAAACAG [G18C G31U],0.673
7,ACCGGAUGUGCUUUCCGCUCUGAUGAGUCCGUAAGGACGAAACAG [G18C G33A],0.765
8,ACCGGAUGUGCUUUCCGCUCUGAUGAGUCCGUCAGGACGAAACAG [G18C G33C],0.616
9,ACCGGAUGUGCUUUCCGCUCUGAUGAGUCCGUUAGGACGAAACAG [G18C G33U],0.708
10,ACCGGAUGUGCUUUCCGCUCUGAUGAGUCCGUGAAGACGAAACAG [G18C G35A],0.537
11,ACCGGAUGUGCUUUCCGCUCUGAUGAGUCCGUGACGACGAAACAG [G18C G35C],0.35
12,ACCGGAUGUGCUUUCCGCUCUGAUGAGUCCGUGAUGACGAAACAG [G18C G35U],0.399
13,ACCGGAUGUGCUUUCCGCUCUGAUGAGUCCGUGAGAACGAAACAG [G18C G36A],0.347
14,ACCGGAUGUGCUUUCCGCUCUGAUGAGUCCGUGAGCACGAAACAG [G18C G36C],0.352
15,ACCGGAUGUGCUUUCCGCUCUGAUGAGUCCGUGAGUACGAAACAG [G18C G36U],0.337
16,ACCGGAUGUGCUUUCCGCUCUGAUGAGUCCGUGAGGACAAAACAG [G18C G39A],0.289
17,ACCGGAUGUGCUUUCCGCUCUGAUGAGUCCGUGAGGACCAAACAG [G18C G39C],0.289
18,ACCGGAUGUGCUUUCCGCUCUGAUGAGUCCGUGAGGACUAAACAG [G18C G39U],0.372
19,ACCGGAUGUGCUUUCCGCUCUGAUGAGUCCGUGAGGACGAAACAA [G18C G45A],0.393
